Results published in US20210145976A1 (ARO BIOTHERAPEUTICS, published 2021).

Columns and labels:
[1] = biological target: T1, recombinant biotinylated CD71 extracellular domain (Sino Biologics) with an N-terminal 6His tag (human, UniProt P02786 89-760, biotinylated (sites not given)); test: screening ELISA
T1 construct: extracellular domain; also called hCD71; huCD71

[2] = biological target: T1, recombinant biotinylated CD71 …; test: screening ELISA, ratio

T1 sequence (P02786 other isoform, or with tags, fused parts or gaps): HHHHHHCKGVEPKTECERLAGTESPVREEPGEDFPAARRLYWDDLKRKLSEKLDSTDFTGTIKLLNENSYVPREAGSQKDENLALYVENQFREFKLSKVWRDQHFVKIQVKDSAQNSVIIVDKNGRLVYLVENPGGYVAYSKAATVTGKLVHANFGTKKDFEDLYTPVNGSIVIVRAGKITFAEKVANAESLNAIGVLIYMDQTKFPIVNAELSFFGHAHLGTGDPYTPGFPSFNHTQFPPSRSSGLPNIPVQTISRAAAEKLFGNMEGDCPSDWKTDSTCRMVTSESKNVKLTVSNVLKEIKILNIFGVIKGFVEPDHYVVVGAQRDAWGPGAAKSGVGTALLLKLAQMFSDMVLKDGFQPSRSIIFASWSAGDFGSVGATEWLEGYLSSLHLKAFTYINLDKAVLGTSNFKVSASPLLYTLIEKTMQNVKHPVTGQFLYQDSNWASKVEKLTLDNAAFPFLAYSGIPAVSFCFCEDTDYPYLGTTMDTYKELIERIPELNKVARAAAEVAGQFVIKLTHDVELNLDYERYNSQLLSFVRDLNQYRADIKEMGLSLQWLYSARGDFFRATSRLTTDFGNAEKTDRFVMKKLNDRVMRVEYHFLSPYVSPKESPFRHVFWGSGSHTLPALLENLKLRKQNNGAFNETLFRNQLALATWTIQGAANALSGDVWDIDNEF

B1: SEQ ID NO 239 (designed binder)
chain: MLPAPKNLVVSRVTEDSARLSWTAPDAAFDSFAITYYEGRWRGEAIVLTVPGSERSYDLTGLKPGTEYGVPIRGVKGGTGSLPLSAIFTT
notes: FN3 domain
In the case of B1, the hCD71 [1] is reported as 419000 and the “hCD71:HSA” value [2] is reported as 83.

B2: SEQ ID NO 196 (designed binder)
chain: MLPAPKNLVVSRVTEDSARLSWTAPDAAFDSFNIHYVEWWVLGEAIVLTVPGSERSYDLTGLKPGTEYPVYIYGVKGGPKSIPLSAIFTT
notes: FN3 domain
With B2 the hCD71 [1] was 1.72e+06 and the “hCD71:HSA” value [2] was 50.

B3: SEQ ID NO 241 (designed binder)
chain: MLPAPKNLVVSRVTEDSARLSWTAPDAAFDSFNIYYYEWFVSGEAIVLTVPGSERSYDLTGLKPGTEYFVDIDGVKGGYRSRPLSAIFTT
notes: FN3 domain
For B3, the hCD71 [1] was 2.7e+06 and the “hCD71:HSA” value [2] was 1230.

B4: SEQ ID NO 201 (designed binder)
chain: MLPAPKNLVVSRVTEDSARLSWTAPDAAFDSFNIDYWETWVIGEAIVLTVPGSERSYDLTGLKPGTEYEVIIPGVKGGTISPPLSAIFTT
notes: FN3 domain
B4 was tested, and the hCD71 [1] was 1.2e+06 and the “hCD71:HSA” value [2] was 106.

B5: SEQ ID NO 231 (designed binder)
chain: MLPAPKNLVVSRVTEDSARLSWTAPDAAFDSFEIPYIETVALGEAIVLTVPGSERSYDLTGLKPGTEYYVEIYGVKGGSYSYPLSAISTT
notes: FN3 domain
With B5 the hCD71 [1] was 2.27e+06 and the “hCD71:HSA” value [2] was 86.

B6: SEQ ID NO 266 (designed binder)
chain: MLPAPKNLVVSRVTEDSARLSWTAPDAAFDSFMIRYQEGTRWGEAIVLTVPGSERSYDLTGLKPGTEYIVMIAGVKGGQISLPLSAIFTT
notes: FN3 domain
With B6 the hCD71 [1] was 894000 and the “hCD71:HSA” value [2] was 337.

B7: SEQ ID NO 270 (designed binder)
chain: MLPAPKNLVVSRVTEDSARLSWTAPDAAFDSFLIRYQEWQRWGEAIVLTVPGSERSYDLTGLKPGTEYTVHIAGVKGGMLSLPLSAIFTT
notes: FN3 domain
For B7, the hCD71 [1] was 1.81e+06 and the “hCD71:HSA” value [2] was 754.

B8: SEQ ID NO 204 (designed binder)
chain: MLPAPKNLVVSRVTEDSARLPWTAPDAAFDSFWISYYESVGYGEAIVLTVPGSERSYDLTGLKPGTEYYVDISGVKGGVYSLPLSAIFTT
notes: FN3 domain
In the case of B8, the hCD71 [1] is reported as 2.77e+06 and the “hCD71:HSA” value [2] is reported as 113.

B9: SEQ ID NO 249 (designed binder)
chain: MLPAPKNLVVSRVTEDSARLSWTAPDAAFDSFSIDYFESVGFGEAIVLTVPGSERSYDLTGLKPGTEYDVQITGVKGGPHSLPLSAIFTT
notes: FN3 domain
With B9 the hCD71 [1] was 1.05e+06 and the “hCD71:HSA” value [2] was 148.

B10: SEQ ID NO 209 (designed binder)
chain: MLPAPKNLVVSRVTEDSARLSWTAPDAAFDSFTIPYIEYVWWGEAIVLTVQGSERSYDLTGLKPGTEYPVTIGGVKGGSRSHPLHAHFTT
notes: FN3 domain
In the case of B10, the hCD71 [1] is reported as 790000 and the “hCD71:HSA” value [2] is reported as 57.

B11: SEQ ID NO 274 (designed binder)
chain: MLPAPKNLVVSRVTEDSVRLSWTAPDAAFDSFAISYEEWWVHGEAIVLTVPGSERSYDLTGLKPGTEYSVVIPGVKGGLYSWTLSAISTT
notes: FN3 domain
B11 was tested, and the hCD71 [1] was 522000 and the “hCD71:HSA” value [2] was 44.

B12: SEQ ID NO 224 (designed binder)
chain: MLLAPKNLVVSRVTEDSARLSWTAPDAAFDSFRYLEQGLYGEAIVLTVPGSERSYDLTGLKPGTEYWVEIIGVKGGEYSTPLSAIFTT
notes: FN3 domain
B12 was tested, and the hCD71 [1] was 2.02e+06 and the “hCD71:HSA” value [2] was 122.

B13: SEQ ID NO 184 (designed binder)
chain: MLPAPKNLVVSRITEDSARLSWTAPDAAFDSFGIGYYEHKRFGEAIQLSVPGSERSYDLTGLKPGTEYEVDIEGVKGGVLSWPLFAEFTT
notes: FN3 domain
With B13 the hCD71 [1] was 470000 and the “hCD71:HSA” value [2] was 235.

B14: SEQ ID NO 269 (designed binder)
chain: MLPAPKNLVVSRVTEDSARLSWTAPDAAFDSFHINYAEVYTKGEAILLTVPGSERSYDLTGLKPGTEYEVYIPGVKGGPFSRPLNAQFTT
notes: FN3 domain
With B14 the hCD71 [1] was 690000 and the “hCD71:HSA” value [2] was 166.

B15: SEQ ID NO 234 (designed binder)
chain: MLPAPKNLVVSRVTEDSARLSWTAPDAAFDSFYITYWETWDYGEAIVLTVPGSERSYDLTGLKPGTEYKVPITGVKGGGPSVPLSAIFTT
notes: FN3 domain
In the case of B15, the hCD71 [1] is reported as 680000 and the “hCD71:HSA” value [2] is reported as 94.

B16: SEQ ID NO 232 (designed binder)
chain: MLPAPKNLVVSRVTEDSARLSWTAPDAAFDSFTIAYDETLNLGEAIVLTVPGSERSYDLTGLKPGTEYIVGIFGVKGGTHSWPLSAIFTT
notes: FN3 domain
With B16 the hCD71 [1] was 1.7e+06 and the “hCD71:HSA” value [2] was 629.

B17: SEQ ID NO 221 (designed binder)
chain: MLPAPKNLVVSRVTEDSARLSWTAPDAAFDSFHISYQEVVAEGEAIYLRVPGSERSYDLTGLKPGTEYYVLIHGVKGGYESKPLDASFTT
notes: FN3 domain
B17 was tested, and the hCD71 [1] was 1.96e+06 and the “hCD71:HSA” value [2] was 537.

B18: SEQ ID NO 199 (designed binder)
chain: MLPAPKNLVVSRVTEDSARLSWTAPDAAFDSFGIRYFEWWDLGEAIVLTVPGSERSYDPTGLKPGTEYNVTIQGVKGGFPSMPLSAIFTT
notes: FN3 domain
With B18 the hCD71 [1] was 1.46e+06 and the “hCD71:HSA” value [2] was 101.

B19: SEQ ID NO 229 (designed binder)
chain: MLPAPKNLVVSRVTEDSARLSWTAPDAAFDSFSIHYDEDWRRGEAIVLTVPGSERSYDLTGLKPGTEYLVEIPGVKGGKASYPLSAIFTT
notes: FN3 domain
With B19 the hCD71 [1] was 570000 and the “hCD71:HSA” value [2] was 154.

B20: SEQ ID NO 186 (designed binder)
chain: MLPAPKNLVVSRVTEDSARLSWTAPDAAFDSFFIGYLESAEAIVLTVPGSERSYDLTGLKPGTEYLVTIQGVKGGIASDPLSAIFTT
notes: FN3 domain
For B20, the hCD71 [1] was 2.02e+06 and the “hCD71:HSA” value [2] was 1090.

B21: SEQ ID NO 218 (designed binder)
chain: MLPAPKNLVVSRVTEDSARLSWTAPDAAFDSFTILYYEMVGEGEAIVLTVPGSERSYDLTGPKPGTEYWVDIYGVKGGGWSRPLSAIFTT
notes: FN3 domain
In the case of B21, the hCD71 [1] is reported as 2.39e+06 and the “hCD71:HSA” value [2] is reported as 71.

B22: SEQ ID NO 208 (designed binder)
chain: MLPAPKNLVVSRVTEDSARLSWTAPDAAFDSFGIVYREPYVGGEAIVLTVPGSERSYDLTGLKPGTEYGVPIPGVKGGYDSGPLSAIFTT
notes: FN3 domain
B22 was tested, and the hCD71 [1] was 2.29e+06 and the “hCD71:HSA” value [2] was 49.

B23: SEQ ID NO 248 (designed binder)
chain: MGSLPAPKNLVVSRVTEDSARLSWTAPDAAFDSFAIPYAEPSPTGEAIVLTVPGSERSYDLTGLKPGTEYPVWIQGVKGGSPSAPLSAEFTT
notes: FN3 domain
B23 was tested, and the hCD71 [1] was 832000 and the “hCD71:HSA” value [2] was 55.

B24: SEQ ID NO 260 (designed binder)
chain: MLPAPKNLVVSRVTEDSARLSWTAPDAAFDSFNISYYEYFVHGEAIVLTVPGSERSYDLTGLKPGTEYYVIDGVKGGDPSEPLSAIFTT
notes: FN3 domain
With B24 the hCD71 [1] was 1.3e+06 and the “hCD71:HSA” value [2] was 90.

B25: SEQ ID NO 230 (designed binder)
chain: MLPAPKNLVVSRVTEDSARLSWTAPDAAFDSFQIRYPKRWISGEAIVLTVPGSERSYDLTGLKPGTEYEVVIRGVKGGEYSWPLSAIFTT
notes: FN3 domain
For B25, the hCD71 [1] was 2e+06 and the “hCD71:HSA” value [2] was 1050.

B26: SEQ ID NO 273 (designed binder)
chain: MLPAPKNLVVSRVTEDSARLSWTAPDAAFDSFTIFKDGEAIVLTVPGSERSYDLTGLKPGTEYYVYIYGVKGGYPSKPLSAIFTT
notes: FN3 domain
With B26 the hCD71 [1] was 4.65e+06 and the “hCD71:HSA” value [2] was 508.

B27: SEQ ID NO 244 (designed binder)
chain: MLPAPKNLVVSRVTEDSARLSWTAPDAAFDSFHIDYSEFHLRGEAIVLTVPGSERSYDLTGLKPGTEYLGIFGVKGGEQSGPLSAIFTT
notes: FN3 domain
For B27, the hCD71 [1] was 545000 and the “hCD71:HSA” value [2] was 330.

B28: SEQ ID NO 206 (designed binder)
chain: MLPAPKNLVVSRVTEDSARLSWTAPDAAFDSFDIEYDELWKNGEAIVLTVPGSERSYDLTGLKPGTEYRVFIYGVKGGYGSFPLSAIFTT
notes: FN3 domain
B28 was tested, and the hCD71 [1] was 833000 and the “hCD71:HSA” value [2] was 314.

B29: SEQ ID NO 227 (designed binder)
chain: MLPAPKNLVVSRVTEDSARLSWTAPDAAFDSFRIRYLEWWNIGEAIVLTVPGSERSYDLTGLKPGTEYHVDIWGVKGGYSSYPLSAIFTT
notes: FN3 domain
B29 was tested, and the hCD71 [1] was 3.85e+06 and the “hCD71:HSA” value [2] was 1680.

B30: SEQ ID NO 242 (designed binder)
chain: MLPAPKNLVVSRVTEDSARLSWTAPDAAFDSFPIKYLEWWSWGEAIVLTVPGSERSYDLTGLKPGTEYRVPISGVKGGGMSGPLSAIFTT
notes: FN3 domain
B30 was tested, and the hCD71 [1] was 872000 and the “hCD71:HSA” value [2] was 178.

B31: SEQ ID NO 247 (designed binder)
chain: MLPAPKNLVVSRVTEDSARLSWTAPDAAFDSFYIEWTYKGEAIVLTVPGSERSYDLTGLKPGTEYFVGIPGVKGGKSSYPLSAIFTT
notes: FN3 domain
For B31, the hCD71 [1] was 916000 and the “hCD71:HSA” value [2] was 17.

B32: SEQ ID NO 191 (designed binder)
chain: MLPAPENLVVSRVTEDSARLSWTAPDAAFDSFEITYEENWRRGEAIVLTVPGSERSYDLTGPKPGTEYIVIIQGVKGGAESWPLSAIFTT
notes: FN3 domain
In the case of B32, the hCD71 [1] is reported as 1.47e+06 and the “hCD71:HSA” value [2] is reported as 43.

B33: SEQ ID NO 189 (designed binder)
chain: MLPAPKNLVVSRVTEDSARLSWTAPDAAFDSFHEWVYFGEAIVLTVPGSERSYDLTGLKPGTEYFVDIWGVKGGTVSKPLSAIFTT
notes: FN3 domain
B33 was tested, and the hCD71 [1] was 1.96e+06 and the “hCD71:HSA” value [2] was 29.

B34: SEQ ID NO 203 (designed binder)
chain: MLPAPKNLVVSRVTEDSARLSWTAPDAALDSFRIEYYESYGHGEAIVLTVPGSERSYDLTGLKPGTEYDVGIYGVKGGYYSRPLSAIFTT
notes: FN3 domain
B34 was tested, and the hCD71 [1] was 3.38e+06 and the “hCD71:HSA” value [2] was 1020.

B35: SEQ ID NO 225 (designed binder)
chain: MLPAPKNLVVSRVTEDSARLSWTAPDAAFDSFKIEYFEYVGYGEAIVLTVPGSERSYDLTGLKPGTEYYVAIYGVKGGWYSRPLSAIFTT
notes: FN3 domain
In the case of B35, the hCD71 [1] is reported as 2.96e+06 and the “hCD71:HSA” value [2] is reported as 210.

B36: SEQ ID NO 253 (designed binder)
chain: MLPAPKNLVVSRVTEDSARLSWTAPDAAFDSFTIEYWETIGGGEAIVLTVPGSERSYDLTGLKPGTEYYVGIYGVKGGWWSRPLSAIFTT
notes: FN3 domain
B36 was tested, and the hCD71 [1] was 2.8e+06 and the “hCD71:HSA” value [2] was 1140.
